# Measurements reported in patent US8034904B2, “Anti-IGF-I receptor antibody” (Immunogen Inc., priority 2002, dated 2011).
# Experiments:
# [1] = system: truncated IGF-I receptor alpha chain construct (residues 1-468 fused to 704-719, myc tag); assay: Binding to truncated IGF-I receptor alpha chain construct; parameters: species or system human
# Text: The binding domain of EM164 antibody was further characterized using a truncated alpha chain construct, which comprised the cysteine rich domain flanked by L1 and L2 domains (residues 1-468) fused with the 16-mer-C-terminus piece (residues 704-719) and which was terminated by a C-terminus epitope tag. This smaller IGF-I receptor, which lacked residues 469-703, has been reported to bind IGF-I, although less tightly compared to the native full-length IGF-I receptor (Molina, L. et al., 2000, FEBS Letters, 467, 226-230; Kristensen, C. et al., 1999, J. Biol. Chem., 274, 37251-37356). Thus, a truncated IGF-I receptor alpha chain construct was prepared comprising residues 1-468 fused to the C-terminus piece that is residues 704-719 and flanked by a C-terminus myc epitope tag. A stable cell line which expressed this construct, and which also expresses the construct transiently in human embryonic kidney 293T cells, was constructed.
# [2] = target: T1, IGF-I receptor on MCF-7 cells (Homo sapiens, UniProt P08069); assay: Inhibition of binding of biotinylated IGF-I to MCF-7 cells; type: cell-based; settings: 5 μg/mL antibody, 2 h; 50 ng/mL biotinylated IGF-I, 20 min, 37° C.
# T1 construct: human breast cancer MCF-7 cells, which expressed IGF-I receptor; endogenous in cells; host or cells: MCF-7 human breast cancer cells
# Description: The binding of IGF-I to human breast cancer MCF-7 cells was inhibited by EM164 antibody (FIG. 3). […] The cells were then washed twice with serum-free medium to remove unbound biotin-IGF-I, and were then lysed in 50 mM HEPES, pH 7.4, containing 1% NP-40 and protease inhibitors. An Immulon-2HB ELISA plate was coated with a mouse monoclonal anti-IGF-I receptor beta chain antibody and was used to capture the IGF-I receptor and bound biotin-IGF-I from the lysate. […] The wells were washed, incubated with streptavidin-horseradish peroxidase conjugate, washed again, and then detected using ABTS/H2O2 substrate.
# MCF-7 cells [3] = assay: Growth inhibition of MCF-7 cells by counting cells; type: cell-based, human; settings: 10 μg/mL EM164
# Description: The growth inhibition of MCF-7 cells by EM164 antibody was measured by counting cells. Thus, in a 12-well plate, about 7500 cells were plated in RPMI medium with 10% FBS, in the presence or absence of 10 μg/mL EM164 antibody. After 5 days of growth, the cell count for the untreated control sample was 20.5×10^4 cells, in contrast to a cell count of only 1.7×10^4 cells for the EM164 antibody-treated sample.
# [4] = system: Calu-6 non-small cell lung cancer cells; assay: Growth and survival of Calu-6 cells (MTT assay); type: cell-based, human
# Description: (§1) Several human tumor cell lines were tested in serum-free conditions for their growth and survival response to IGF-I. These cell lines were treated with EM164 antibody in the presence of IGF-I, IGF-II, or serum, and their growth and survival responses were measured using an MTT assay after 2-4 days. Approximately 1500 cells were plated in a 96-well plate in regular medium with serum, which was replaced with serum-free medium the following day (either serum-free RPMI medium supplemented with transferrin and BSA, or phenol-red free medium as specified by Dufourny, B. et al., 1997, J. Biol. Chem., 272, 31163-31171). After one day of growth in serum-free medium, the cells were incubated with about 75 μL of 10 μg/mL antibody for 30 min.-3 h, followed by the addition of 25 μL of IGF-I (or IGF-II or serum) solution to obtain a final concentration of 10 ng/mL IGF-I, or 20 ng/mL IGF-II, or 0.04-10% serum. In some experiments, the cells were stimulated first with IGF-I for 15 min before the addition of EM164 antibody, or both IGF-I and EM164 antibody were added together. The cells were then allowed to grow for another 2-3 days. A solution of MTT (3-(4,5)-dimethylthiazol-2-yl)-2,5-diphenyltetrazolium bromide; 25 μL of a 5 mg/mL solution in PBS) was then added and the cells were returned to the incubator for 2-3 h. The medium was then removed and replaced by 100 μL DMSO, mixed, and the absorbance of the plate was measured at 545 nm.
# A 375 (melanoma) cells = assay: Growth and survival of A 375 cells (MTT assay); type: cell-based, human
# Description: as §1
# [5] = target: T2, IGF-I receptor of MCF-7 cells (Homo sapiens, UniProt P08069); assay: Immunoprecipitation of IGF-I receptor from MCF-7 lysate; type: binding; settings: MCF-7 lysate (human)
# T2 construct: human breast cancer MCF-7 cells, which expressed IGF-I receptor; endogenous in cells; host or cells: MCF-7 human breast cancer cells
# Text: (§2) A Western blot of the EM164 antibody immunoprecipitate was detected using a rabbit polyclonal anti-IGF-I receptor beta chain (C-terminus) antibody (Santa Cruz Biotechnology) and a goat-anti-rabbit-IgG-antibody-horseradish peroxidase conjugate, followed by washes and enhanced chemiluminescence (ECL) detection.
# [6] = target: T3, IGF-I receptor of 3T3 cells (Mus musculus, UniProt Q60751); assay: Immunoprecipitation of IGF-I receptor from 3T3 cells; type: binding
# T3 construct: endogenous in cells; host or cells: 3T3 cells (mouse)
# Text: as §2
# HT-3 (cervical) cells = assay: Growth and survival of HT-3 cells (MTT assay); type: cell-based, human; settings: 5-10 μg/mL EM164, 10 ng/mL IGF-I
# Description: as §1, with “A solution of MTT (3-(4,5)-dimethylthiazol-2-yl)-2,5-diphenyltetrazolium bromide; 25 μL of a 5 mg/mL solution in PBS) was then added and the cells were returned to the incubator for 2-3 h.” left out
# Akt and Erk1/2 = assay: IGF-I receptor signaling in SaOS-2 cells (Western blots, phospho-Akt and phospho-Erk1/2); type: cell-based, human
# [7] = system: SaOS-2 (osteosarcoma) cells; assay: Growth and survival of SaOS-2 cells (MTT assay); type: cell-based, human
# Description: as §1
# MCF-7 cells [8] = assay: Cell cycle analysis of MCF-7 cells (propidium iodide, flow cytometry); type: cell-based, human; settings: IGF-I 20 ng/mL with or without EM164 20 μg/mL, 1 day
# Description: The EM164 antibody caused growth arrest of cells in G0/G1 phase of cell cycle and abrogated the mitogenic effect of IGF-I. For cell cycle analysis, MCF-7 cells were treated with IGF-I (20 ng/mL) in the presence or absence of EM164 (20 μg/mL) for 1 day and then analyzed by propidium iodide staining and flow cytometry.
# [9] = 5-10 μg/mL EM164, 10 ng/mL IGF-I
# [10] = 5-10 μg/mL EM164, MTT or colony formation assay
# T3 sequence (Q60751 31-1373): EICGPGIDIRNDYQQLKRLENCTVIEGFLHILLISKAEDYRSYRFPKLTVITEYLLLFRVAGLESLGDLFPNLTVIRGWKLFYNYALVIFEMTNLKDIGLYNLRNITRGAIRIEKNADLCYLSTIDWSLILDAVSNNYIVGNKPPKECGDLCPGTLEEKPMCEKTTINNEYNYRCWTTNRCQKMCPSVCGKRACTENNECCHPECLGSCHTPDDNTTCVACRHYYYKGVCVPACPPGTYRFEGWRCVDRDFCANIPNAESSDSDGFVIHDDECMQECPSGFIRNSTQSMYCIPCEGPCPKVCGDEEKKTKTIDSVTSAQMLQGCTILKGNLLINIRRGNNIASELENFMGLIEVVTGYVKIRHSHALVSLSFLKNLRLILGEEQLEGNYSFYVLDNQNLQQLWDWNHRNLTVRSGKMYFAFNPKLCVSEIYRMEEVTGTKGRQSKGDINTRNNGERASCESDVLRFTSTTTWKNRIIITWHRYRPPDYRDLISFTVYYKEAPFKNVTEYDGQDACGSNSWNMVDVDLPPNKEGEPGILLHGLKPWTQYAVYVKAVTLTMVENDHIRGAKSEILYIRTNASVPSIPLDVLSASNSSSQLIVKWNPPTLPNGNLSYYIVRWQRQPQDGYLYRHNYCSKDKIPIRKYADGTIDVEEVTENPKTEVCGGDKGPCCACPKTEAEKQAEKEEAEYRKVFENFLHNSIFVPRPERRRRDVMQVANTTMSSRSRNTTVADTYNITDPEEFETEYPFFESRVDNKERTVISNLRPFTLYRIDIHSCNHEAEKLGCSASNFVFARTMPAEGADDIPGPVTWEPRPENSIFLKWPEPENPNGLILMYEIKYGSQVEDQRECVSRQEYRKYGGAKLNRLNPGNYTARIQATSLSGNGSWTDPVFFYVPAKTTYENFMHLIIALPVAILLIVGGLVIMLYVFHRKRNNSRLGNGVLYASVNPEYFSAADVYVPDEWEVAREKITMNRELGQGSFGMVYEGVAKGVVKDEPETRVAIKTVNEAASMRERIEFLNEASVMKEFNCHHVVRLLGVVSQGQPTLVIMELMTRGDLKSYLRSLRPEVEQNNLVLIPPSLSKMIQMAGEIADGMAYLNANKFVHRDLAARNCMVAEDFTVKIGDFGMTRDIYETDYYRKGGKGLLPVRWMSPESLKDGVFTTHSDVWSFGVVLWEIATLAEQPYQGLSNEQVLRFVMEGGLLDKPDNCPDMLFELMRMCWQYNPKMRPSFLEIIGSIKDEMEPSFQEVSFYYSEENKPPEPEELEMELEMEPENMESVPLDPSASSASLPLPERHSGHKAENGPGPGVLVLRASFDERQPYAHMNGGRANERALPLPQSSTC
molecule,measurement,setting,value
"EM164: murine anti-IGF-I receptor monoclonal antibody, IgG1 with kappa light chain, hybridoma ATCC PTA-4457; heavy SEQ ID NO:7, light SEQ ID NO:8 (antibody, antibody heavy chain; antibody light chain) heavy: QVQLQQSGAELVKPGASVKLSCKASGYTFTSYWMHWVKQRPGQGLEWIGEINPSNGRTNYNEKFKRKATLTVDKSSSTAYMQLSSLTSEDSAVYYFARGRPDYYGSSKWYFDVWGAGTTVTVSS light: DVLMTQTPLSLPVSLGDQASISCRSSQSIVHSNVNTYLEWYLQKPGQSPKLLIYKVSNRFSGVPDRFSGSGSGTDFTLRISRVEAEDLGIYYCFQGSHVPPTFGGGTKLEIKR",binding to truncated IGF-I receptor alpha chain construct,[1],strong binding
same,inhibition of IGF-I binding to MCF-7 cells,[2],essentially quantitative
same,cell count after 5 days of growth,"MCF-7 cells [3]; RPMI with 10% FBS, about 7500 cells plated, untreated control 20.5×10^4 cells",1.7×10^4 cells
same,inhibition of growth of MCF-7 cells,"MCF-7 cells [3]; in 5 days, 10% FBS",about 12 fold
same,Inhibition by EM164 antibody of IGF-I-stimulated growth in serum-free medium,[4]; [9],85%
same,% Inhibition by EM164 antibody of Growth/survival of cells in 1.25-10% serum,[4]; [10],Yes
same,Inhibition by EM164 antibody of IGF-I-stimulated growth in serum-free medium,A 375 (melanoma) cells; [9],90%
same,% Inhibition by EM164 antibody of Growth/survival of cells in 1.25-10% serum,A 375 (melanoma) cells; [10],No
same,immunoprecipitation of IGF-I receptor,[5],can be used for immunoprecipitation of IGF-I receptor
same,binding to IGF-I receptor (immunoprecipitation),[6],did not bind
same,Inhibition by EM164 antibody of IGF-I-stimulated growth in serum-free medium,HT-3 (cervical) cells,70-90%
same,EGF-stimulated phosphorylation of Erk1/2,Akt and Erk1/2,did not inhibit
same,intracellular IGF-I receptor signaling,Akt and Erk1/2,almost completely inhibited
same,activation of Akt and Erk1/2,Akt and Erk1/2; IGF-I stimulated,inhibited in a dose-dependent manner
same,Inhibition by EM164 antibody of IGF-I-stimulated growth in serum-free medium,[7]; [9],100%
same,% Inhibition by EM164 antibody of Growth/survival of cells in 1.25-10% serum,[7]; [10],Yes
same,cells in the G0/G1 phase,MCF-7 cells [8],77%
same,cells in the S phase,MCF-7 cells [8],9%
